Patent publication US20260193348A1 (ANTENGENE BIOLOGICS, published 2026)

Experiments:
[1] = target: T1, CD3 on Jurkat cells (UniProt P07766 23-207; P04234 22-171; P09693 23-182); assay: FACS on Jurkat cells
T1 construct: whole, on cells; On the cell, CD3 stands in the TCR-CD3 complex; also called cluster of differentiation 3
Method: The binding affinities of the generated humanized Fab-scFv-Fab bispecific antibodies were determined by FACS analysis. […] (a) Jurkat cells were washed by Staining Buffer (PBS+1% BSA) in round bottom 96-well plate. [0833] (b) Antibody dilutions and cells were added to each well, incubated at 4 degrees for 1 hour. [0834] (c) Cells were spined down at 300 g for 3 minutes, and the supernatants were discarded. [0835] (d) Cells were washed with Staining Buffer. […] (e) Step (d) was repeated and the cells were incubated for 0.5 hours at 4 degrees with secondary antibody in Staining Buffer. [0837] (f) After incubation, step (d)-(e) were repeated. […] (g) Staining Buffer was added and fluorescence signals were recorded by flow cytometry.
The binding affinities of the generated humanized Fab-scFv-Fab bispecific antibodies were determined by FACS analysis. The protocol for FACS analysis is identical to that described in Example 3.2, except that different test antibodies were used.

[2] = target: T2, GPRC5D on MM.1S cells (human, UniProt Q9NZD1 1-345); assay: cell-based or functional assay
[3] = target: T2, GPRC5D on MM.1S cells; assay: cell-based or functional assay; remark: listed apart in the source
[4] = target: T3, GPRC5D on multiple myeloma cells (human, UniProt Q9NZD1 1-345); assay: FACS on MM.1S cells
T3 construct: whole, on cells; Endogenous GPRC5D on multiple myeloma cell lines; also called G-protein coupled receptor family C group 5 member D; MM.1S, MOLP-8, L363, RPMI8226 cells

[5] = target: T4, CD3 on T cells / Jurkat cells (human, UniProt P07766 23-207; P04234 22-171; P09693 23-182); assay: FACS on Jurkat cells
T4 construct: whole, on cells; Native CD3 complex on CD3+ T cells isolated from normal donors or on Jurkat cells; also called human CD3; CD3+ T cells
T4 sequence (P07766 23-207, chain 1 of 3): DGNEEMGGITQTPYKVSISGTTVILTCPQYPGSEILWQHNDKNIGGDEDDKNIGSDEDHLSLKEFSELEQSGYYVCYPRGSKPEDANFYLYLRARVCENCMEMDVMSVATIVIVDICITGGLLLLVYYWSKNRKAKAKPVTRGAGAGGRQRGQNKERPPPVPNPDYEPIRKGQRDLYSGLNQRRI
T4 sequence (P04234 22-171, chain 2 of 3): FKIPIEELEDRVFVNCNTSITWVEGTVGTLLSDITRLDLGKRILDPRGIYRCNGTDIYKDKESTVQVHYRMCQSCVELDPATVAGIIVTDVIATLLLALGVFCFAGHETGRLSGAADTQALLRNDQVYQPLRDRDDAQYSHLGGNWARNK
T4 sequence (P09693 23-182, chain 3 of 3): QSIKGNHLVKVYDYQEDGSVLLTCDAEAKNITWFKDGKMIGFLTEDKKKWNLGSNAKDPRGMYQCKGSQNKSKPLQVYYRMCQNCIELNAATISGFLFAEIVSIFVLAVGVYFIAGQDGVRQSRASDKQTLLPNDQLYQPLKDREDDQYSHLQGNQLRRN

T1 sequence (P07766 23-207, chain 1 of 3): as the sequence (P07766 23-207, chain 1 of 3) above
T1 sequence (P04234 22-171, chain 2 of 3): as the sequence (P04234 22-171, chain 2 of 3) above
T1 sequence (P09693 23-182, chain 3 of 3): as the sequence (P09693 23-182, chain 3 of 3) above
T2 sequence (Q9NZD1 whole entry): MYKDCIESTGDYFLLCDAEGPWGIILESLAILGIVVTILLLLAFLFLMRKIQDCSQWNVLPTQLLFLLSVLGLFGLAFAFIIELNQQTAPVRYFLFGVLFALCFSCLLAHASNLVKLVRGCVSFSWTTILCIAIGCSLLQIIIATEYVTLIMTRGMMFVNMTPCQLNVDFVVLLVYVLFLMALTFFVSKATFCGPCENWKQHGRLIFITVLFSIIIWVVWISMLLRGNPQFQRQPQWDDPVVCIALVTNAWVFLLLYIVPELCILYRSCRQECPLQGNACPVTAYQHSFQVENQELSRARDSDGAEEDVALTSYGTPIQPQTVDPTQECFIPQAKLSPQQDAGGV
T3 sequence (Q9NZD1 whole entry): as above

B1: Bis-40E9-L2H3-D56G.H (bispecific antibody)
heavy 1: not shown
heavy 2: EVQLVQSGAEVKKPGASVKVSCKASGYTFTSYVIHWVRQAPGQGLEWMGYFNPYNDGTKYNEEFKGRVTLTSDKSTSTAYMELRSLRSDDTAVYYCARGGVRRYFDVWGQGTTVTVSSASTKGPSVFPLAPSSKSTSGGTAALGCLVKDYFPEPVTVSWNSGALTSGVHTFPAVLQSSGLYSLSSVVTVPSSSLGTQTYICNVNHKPSNTKVDKKVEPKSCGGGGSGGGGSEVQLVQSGAEVKKPGSSVKVSCKASGYTFSSYVIHWVRQAPGQCLEWMGYINPYNGVIKYNEKFKGRVTLTSDKSTSTAYMELSSLRSEDTAVYYCARDSYYSYDGFAYWGQGTLVTVSSGGGGSGGGGSGGGGSGGGGSEIVLTQSPDFQSVTPKEKVTITCSASSSVSYMHWYQQKPDQSPKRLIYDTSKLASGVPSRFSGSGSGTDFTLTINSLEAEDAATYYCQQWSSNPPTFGCGTKVEIKGGGGSGGGGSDKTHTCPPCPAPEAAGGPSVFLFPPKPKDTLMISRTPEVTCVVVDVSHEDPEVKFNWYVDGVEVHNAKTKPREEQYNSTYRVVSVLTVLHQDWLNGKEYKCKVSNKALPAPIEKTISKAKGQPREPQVCTLPPSREEMTKNQVSLSCAVKGFYPSDIAVEWESNGQPENNYKTTPPVLDSDGSFFLVSKLTVDKSRWQQGNVFSCSVMHEALHNHYTQKSLSLSPGK
light: DIQMTQSPSSLSASVGDRVTITCRASQDIGSNLNWLQQKPGKAIKRLIYATFGLDSGVPSRFSGSRSGTDFTLTISSLQPEDFATYYCQQYASFPYTFGGGTKVEIKRTVAAPSVFIFPPSDEQLKSGTASVVCLLNNFYPREAKVQWKVDNALQSGNSQESVTEQDSKDSTYSLSSTLTLSKADYEKHKVYACEVTHQGLSSPVTKSFNRGEC
notes: Fab-scFv-Fab format with LALA mutations
- Ratio of EC50 (relative to ATG-Bis-40E9) [1]: 2.41 ratio
- Ratio of Top MFI (relative to ATG-Bis-40E9) [1]: 0.55 ratio
- Ratio of IC50 (relative to ATG-Bis-40E9), MM.1S cytotoxicity [2]: 0.99 ratio
- Ratio of Top cytotoxicity (relative to ATG-Bis-40E9), MM.1S cytotoxicity [2]: 1 ratio
- Ratio of EC50 (relative to ATG-Bis-40E9), luciferase assay on MM.1S [3]: 0.81 ratio
- Ratio of Top RLU (relative to ATG-Bis-40E9), luciferase assay on MM.1S [3]: 1.01 ratio

B2: Bis-40E9-L2H3-D105R.H (bispecific antibody)
heavy 1: not shown
heavy 2: EVQLVQSGAEVKKPGASVKVSCKASGYTFTSYVIHWVRQAPGQGLEWMGYFNPYNDGTKYNEEFKGRVTLTSDKSTSTAYMELRSLRSDDTAVYYCARGGVRRYFDVWGQGTTVTVSSASTKGPSVFPLAPSSKSTSGGTAALGCLVKDYFPEPVTVSWNSGALTSGVHTFPAVLQSSGLYSLSSVVTVPSSSLGTQTYICNVNHKPSNTKVDKKVEPKSCGGGGSGGGGSEVQLVQSGAEVKKPGSSVKVSCKASGYTFSSYVIHWVRQAPGQCLEWMGYINPYNDVIKYNEKFKGRVTLTSDKSTSTAYMELSSLRSEDTAVYYCARDSYYSYRGFAYWGQGTLVTVSSGGGGSGGGGSGGGGSGGGGSEIVLTQSPDFQSVTPKEKVTITCSASSSVSYMHWYQQKPDQSPKRLIYDTSKLASGVPSRFSGSGSGTDFTLTINSLEAEDAATYYCQQWSSNPPTFGCGTKVEIKGGGGSGGGGSDKTHTCPPCPAPEAAGGPSVFLFPPKPKDTLMISRTPEVTCVVVDVSHEDPEVKFNWYVDGVEVHNAKTKPREEQYNSTYRVVSVLTVLHQDWLNGKEYKCKVSNKALPAPIEKTISKAKGQPREPQVCTLPPSREEMTKNQVSLSCAVKGFYPSDIAVEWESNGQPENNYKTTPPVLDSDGSFFLVSKLTVDKSRWQQGNVFSCSVMHEALHNHYTQKSLSLSPGK
light: DIQMTQSPSSLSASVGDRVTITCRASQDIGSNLNWLQQKPGKAIKRLIYATFGLDSGVPSRFSGSRSGTDFTLTISSLQPEDFATYYCQQYASFPYTFGGGTKVEIKRTVAAPSVFIFPPSDEQLKSGTASVVCLLNNFYPREAKVQWKVDNALQSGNSQESVTEQDSKDSTYSLSSTLTLSKADYEKHKVYACEVTHQGLSSPVTKSFNRGEC
notes: as for B1
- Ratio of EC50 (relative to ATG-Bis-40E9) [1]: 4.53 ratio
- Ratio of Top MFI (relative to ATG-Bis-40E9) [1]: 1.17 ratio
- Ratio of IC50 (relative to ATG-Bis-40E9), MM.1S cytotoxicity [2]: 0.86 ratio
- Ratio of Top cytotoxicity (relative to ATG-Bis-40E9), MM.1S cytotoxicity [2]: 1.01 ratio
- Ratio of EC50 (relative to ATG-Bis-40E9), luciferase assay on MM.1S [3]: 1.32 ratio
- Ratio of Top RLU (relative to ATG-Bis-40E9), luciferase assay on MM.1S [3]: 0.79 ratio

B3: Bis-108+147-S32R.L (bispecific antibody, V domains shown)
VH 1: EVQLVQSGAEVKKPGASVKVSCKASGYTFTSYVIHWVRQAPGQGLEWMGYFNPYNDGTKYNEEFKGRVTLTSDKSTSTAYMELRSLRSDDTAVYYCARGGVRRYFDVWGQGTTVTVSS
VL 1: DIQMTQSPSSLSASVGDRVTITCRASQDIGSNLNWLQQKPGKAIKRLIYATFGLDSGVPSRFSGSRSGTDFTLTISSLQPEDFATYYCQQYASFPYTFGGGTKVEIK
VH 2: EVQLVQSGAEVKKPGSSVKVSCKASGYTFTSYWMHWVRQAPGQCLEWMGNINPSSGATNYNEKFKSRVTLTVDKSTSTAYMELSSLRSEDTAVYYCARDRSSQYYFDYWGQGTTVTVSS
VL 2: DIVMTQSPDSLAVSLGERATINCKSSQSLLNRRSRKNYLAWYQQKPGQPPKLLIYWASTRESGVPDRFSGSGSGTDFTLTISSLQAEDVAVYYCTQSYTLRTFGCGTKVEIK
notes: Fab-scFv-Fab (2+1): first VH/VL = anti-GPRC5D Fabs, second VH/VL = anti-CD3 scFv
- binding result [4]: binds
- binding result [5]: binds

B4: Bis-108+147-S54R.H (bispecific antibody, V domains shown)
VH 1: EVQLVQSGAEVKKPGASVKVSCKASGYTFTSYVIHWVRQAPGQGLEWMGYFNPYNDGTKYNEEFKGRVTLTSDKSTSTAYMELRSLRSDDTAVYYCARGGVRRYFDVWGQGTTVTVSS
VL 1: DIQMTQSPSSLSASVGDRVTITCRASQDIGSNLNWLQQKPGKAIKRLIYATFGLDSGVPSRFSGSRSGTDFTLTISSLQPEDFATYYCQQYASFPYTFGGGTKVEIK
VH 2: EVQLVQSGAEVKKPGSSVKVSCKASGYTFTSYWMHWVRQAPGQCLEWMGNINPRSGATNYNEKFKSRVTLTVDKSTSTAYMELSSLRSEDTAVYYCARDRSSQYYFDYWGQGTTVTVSS
VL 2: DIVMTQSPDSLAVSLGERATINCKSSQSLLNSRSRKNYLAWYQQKPGQPPKLLIYWASTRESGVPDRFSGSGSGTDFTLTISSLQAEDVAVYYCTQSYTLRTFGCGTKVEIK
notes: as for B3
- binding result [4]: binds
- binding result [5]: binds

B5: Bis-108+147-S102Q.H (bispecific antibody, V domains shown)
VH 1: EVQLVQSGAEVKKPGASVKVSCKASGYTFTSYVIHWVRQAPGQGLEWMGYFNPYNDGTKYNEEFKGRVTLTSDKSTSTAYMELRSLRSDDTAVYYCARGGVRRYFDVWGQGTTVTVSS
VL 1: DIQMTQSPSSLSASVGDRVTITCRASQDIGSNLNWLQQKPGKAIKRLIYATFGLDSGVPSRFSGSRSGTDFTLTISSLQPEDFATYYCQQYASFPYTFGGGTKVEIK
VH 2: EVQLVQSGAEVKKPGSSVKVSCKASGYTFTSYWMHWVRQAPGQCLEWMGNINPSSGATNYNEKFKSRVTLTVDKSTSTAYMELSSLRSEDTAVYYCARDRSQQYYFDYWGQGTTVTVSS
VL 2: DIVMTQSPDSLAVSLGERATINCKSSQSLLNSRSRKNYLAWYQQKPGQPPKLLIYWASTRESGVPDRFSGSGSGTDFTLTISSLQAEDVAVYYCTQSYTLRTFGCGTKVEIK
notes: as for B3
- binding result [4]: binds
- binding result [5]: binds
